Test results: the nanobody polyreactivity screen of Harvey et al. (2022)

Assay: yeast display, Sf9 membrane polyspecificity reagent, FACS + sequencing; frameworks hold sequencing errors
Summary of the method: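 Polyreactivity labels are assigned by the sorting gate from which each nanobody was recovered. The gates were low and high (top ~1%), set on anti-HA fluorescence for expression and streptavidin fluorescence for reagent binding. Before sorting, galactose-induced (36–48 hours) yeast display cells were stained for 1 hour at 4 °C with 10% biotinylated, detergent-solubilized Sf9 membrane reagent.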

Sequence	polyreactivity (PSR sort gate)
QVQLVESVGGLVQAGGSLRLSCAASGSTIANYAMGWYRQAPGKERELVARIRHSDGSTYYADSVKGRFTISRDNAKNTVYLQMNSLKPEDTAVYYCNVAYPRYRGNPRQSGMGYWGQGTQVTVSS	high polyreactivity
QVQLVESVGGLVQAGGSLRLSCAASGSTLYPYAMGWYRQAPGKERELVAVITLRGGSTYYADSVKGRFTISRDNAKNTVYLQMNSLKPEDTAVYYCAARKRPFYKYDYWGQGTQVTVSS	high polyreactivity
QVQLVESVGGLVQAGGSLRLSCAASGSTSSLYAMGWYRQAPGKERELVASITSRGGSTYYAVSVKGRFTISRDNAKNTVYLLMNSLKPEDTAVYYCAADASRPDRWYLWKYYYWGQGTQVTVSS	high polyreactivity
QVQLVESVGGLVQAGGSLRLSCAASGTFKWYAMGWYRQAPGKERELVAVISSSGGTTYYADSVKGRFTISRDNAKNTVYLQMNSLKPEDTAVYYCNKRFRSWTTGSPYDYWGQGTQVTVSS	high polyreactivity
QVQLVESVGGLVQAGGSLRLSCAASGYIFGYNAMGWYRQAPGKERELVAAISRSAGRTYYADSVKGRFTISRDNAKNTVYLQMNSLKPEDTAVYYCAAQSYWLGYEYWGQGTQVTVSS	high polyreactivity
QVQLVESVGGLVQAGGSLRLSCAASGYIFKYYAMGWYRQAPGKERELVAAISRSGGSTYYADSVKGRFTISRDNAKNTVYLQMNSLKPEDTAVYYCNAAAYVWKSKQRLYVITYDYWGQGTQVTVSW	high polyreactivity
QVQLVESVGGLVQAGGSLRLSCAASGYTLGDYAMGWYRQAPGKERELVAVITRNGGRTYYADSVKGRFTISRDNAKNTVYLQMNSLKPEDTAVYYCNRDTSIRHYNYWGQGTQVTVSS	high polyreactivity
QVQLVESVGGLVQAGGSLRLSCAASVYIFGYNAMGWYRQAPGKERELVAAISRSAGRTYYAVSVKGRFTISRDNAKNTVYLQMNSLKPEDTAVYYCAAQSYWLCYEYWGHGTQVTVSS	high polyreactivity
QVQLVESVGGLVQAGGSLRLSCAPSGRTFYIYAMGRYRQAPGKERELVAAISISGSTYYADSVKGRFTISRDNAKNTVYLQMNSLKPEDTAVYYCAADYLDSTYGYVYGWDDYLGQGTQVTVSS	low polyreactivity
QVQLVESVGGLVQAGGSLRLSCAPSGSTFYGYAMGWYRQAPGKESELVAAITWGGASTYYADSVKGRFTISRDNAKNTVYLQMNSLKPEDTAVYYCATVGWGYQPYPFGMDYWGQGTQVTVSS	low polyreactivity
QVQLVESVGGLVQAGGSLRLSCASSGLIFPIYTMGWYRQAPGKERELVAASSSRGGSTYYADSVKGRFTISRDNAKNSVYLQMNCLKPEDTAVYDFGSYDYSGQGTQVTVSS	high polyreactivity
QVQLVESVGGLVQAGGSLRLSCPASGINFWNYAMGRYRQAPGKERELVAVISRGGSTYYADSVKGRFTISRDNAKNTVYLQMNSLKPEDNAVYYCAADSVVWEMEYWGQGTLVTVSS	high polyreactivity
QVQLVESVGGLVQAGGSLRLSCSDSGSTFKSYAMGWYRQSPGKERELVAAITHRGSTYYADSVKGRFTISRDNAKNTVYVQMNSLKPEDTAVYYCNVRRIGNGRRVDYCGQGTQVTVSS	high polyreactivity
QVQLVESVGGLVQAGGSLRLSGADSGITFGVYAMGWYRQAPGKVRELVAAICVSGGSTYYADSVKGRFTISRDNAKNTVYLHMNSLKPEVTAVYYCAADRYGHFGYWGQGTQVTLSS	high polyreactivity
QVQLVESVGGLVQAGGSLRLSSAASGRTFSNAKGWYRQAPGKERELVADISSGGSTNYADSVKGRFTISRDNAKNTVYLQMNSLKPEDPAVYYCAAVSGSLYGYSDDYWGQGTQVTVSS	low polyreactivity
QVQLVESVGGLVQAGGSLRLSSAASGSIFAYNAMGSYRQAPGKERELVAAITSDDSTNNADSVKGRFTISRDNAKNTVYLQMNSLKPEDTAVYYCAAYYYYTYIIGYDYWGQGTQVTVSS	low polyreactivity

Sequence	polyreactivity (PSR sort gate)
QVQLVESVGGLVQAGGSLRLSSAASGSTFRGYALGWYRQSPGKERELVASISWSGGSTYYADSVKGRFTISRDNAKNTVYLQMNSLKQEDTAVYYCAARKRWRNIRMDYWGQGTQVTVSS	high polyreactivity
QVQLVESVGGLVQAGRSHRLSGAASCFTFTGYALGWYRQAPGKEREFVAAISRGGSTKYADSVMGRFTISRDNAKNTVYLQMNSLKPEDTAVYYCDASPVYGISRYTLGIYNYGGQGTQVTVSS	high polyreactivity
QVQLVESVGGLVQAGVSLPLSCAASGFTFSYNAMGWYIQAPGKERELVATIRSSGGSTNYADSVKGRFTISRDNAKNTVYVQMNSLKPEDTAVYYCAADFSYYSTYDYWGQGTQVTVSS	low polyreactivity
QVQLVESVGGLVQPGGSLRLSCAASGFTFRNNAMGWYRQSPVKERELVAAITGSGGRTYYTDSVKGRFTISSDNAKNTVYLQMHSLKPEDTAVYYCNTRYRGVHYTEMDYWGQGTQVSVSS	high polyreactivity
QVQLVESVGGVVQAGGSLRLCCAANRSTFAAKAMGWYRQAPGKERELGAAITSGGGTNYADSVKGRFTISRDNAKNTVYLQMNSLKPEDTAVYYCAARTWPWVLGATQDDYWGQGTQVTLSS	low polyreactivity
QVQLVESVLGLVQAGGSLRLSCAASGSTILSNAIGWYRQAPGKERELVAAITSGGSTYYADSVKGGFTISRDNAKNTVYFQMNSLKPDDTAVYYCAVRYDRRRYDYWGQGTQVTVSS	low polyreactivity
QVQLVESVRGLVHAGGSLRLSCAASGSTFYPYRMGGYRQAPGKEREFVAAITWSGGSTYYADSVKGRFTISRDNAKNTVYLQMNSLKPEDTAVYYCNKDARWYAYNSEYDHWGQGTQVSVSS	low polyreactivity
QVQLVESVVGLVQAGGSLRLICAASGIIISRYAMECYRQAPGKERELVAAITRSGGDTYYADSVKGRFTISRDNAKNTVYLQMNSLKPEDTAVYYCAASSSWYEDHDYWGQGTQVTVSS	low polyreactivity
QVQLVESVVGLVQAGGSLRLSCAASGFIFVVYAMGWYRQAPGKERELVAAITNGGITYYADSVKGRFTISRDNAKNTVYLQMNSLKPEDTAVYYCNAQYTDYDGYVGYYYWGQGTQVTVSS	low polyreactivity
QVQLVESVVGLVQAGGSLRLSCAASGRIFYRYAMGWYRQAPGKERELVASITRSGITHYADSVKGRFTISRDNAKNTVYLQMNSLKPEDTAVYYCYARRGSPAPYDYWGQGTQVTVSS	high polyreactivity
QVQLVESVVGLVQAGGSLRLSSAASGSIFPYYVMGWYRQAPGKERELVAAISSRGTSTYYADSVKGRFTLSRDNAKNSVYLQMNSLKPEDTAVYYCAAAYVKFYGYSAEYDYCGQGTQVTVSS	low polyreactivity
QVQLVESWGGIVQAGGSLRLSCAASGFIFSRYGMGWYRQAPGKERELVAAISRSAGSTYYADSVKGRFTISRDNAKNTVYLQMNSQKPEETAVYYCAARHGGRATVEPPIQGYGYWGQGTQVTVSS	low polyreactivity
QVQLVESWGGLFQAGGSLRLSCAASGSTFIYNAMGWYRKAPGKERELVAAITWNYGSTYYADSVKGRFTISRDNANNTVYLQMNSLKPEDTAVYYCAADFTIPYWDANFDYWGQGTQVTVSW	low polyreactivity
QVQLVESWGGLGQAVGSLRLSCAASGRTFLIYAMGWYIQAPGTERELVASITGRGGRTSYADSVKGRFTISRDNAQNTVYLQMNSLKPEDTAVYYCAARNPYTSTYYYWGQGTQVTVSS	high polyreactivity
QVQLVESWGGLVHAGGSLRLSCAASGSTFYWYAMGWYIQAPGKEREFVARISSSGSSTFYADSVKGRFTISRDNAKNTVYLQMNSLKPEDTAVYYCAAETYRHYCFNYWGQGTQVTVSS	high polyreactivity
QVQLVESWGGLVQAGASLRLSCAASGRILPYYAMGWYRQAPGKERELVATISSGGRTNYADSVKGRFTISRDNAKITVYLQMNSLKPEDTEVYFCNKYGFKGGVGYDYWGQGTQVTVSS	high polyreactivity
